Assay results as given in patent publication US20060193851A1.

Test system: 10C12 F(ab')2-leucine zipper

In the case of factor X, the “rate of FX activation by relipidated TF(1-243):FVIIa after incubating 10C12 with the substrate FX” value is reported as 10C12 at up to 200 µg/ml did not inhibit FXa generation in either experimental setting.
